In patent US20040253685:
Positions count from the first letter of the chain named.

Legend:
[1] = target: T1, wild type bovine endothelial nitric oxide synthase (eNOS) (UniProt P29473)
T1 sequence: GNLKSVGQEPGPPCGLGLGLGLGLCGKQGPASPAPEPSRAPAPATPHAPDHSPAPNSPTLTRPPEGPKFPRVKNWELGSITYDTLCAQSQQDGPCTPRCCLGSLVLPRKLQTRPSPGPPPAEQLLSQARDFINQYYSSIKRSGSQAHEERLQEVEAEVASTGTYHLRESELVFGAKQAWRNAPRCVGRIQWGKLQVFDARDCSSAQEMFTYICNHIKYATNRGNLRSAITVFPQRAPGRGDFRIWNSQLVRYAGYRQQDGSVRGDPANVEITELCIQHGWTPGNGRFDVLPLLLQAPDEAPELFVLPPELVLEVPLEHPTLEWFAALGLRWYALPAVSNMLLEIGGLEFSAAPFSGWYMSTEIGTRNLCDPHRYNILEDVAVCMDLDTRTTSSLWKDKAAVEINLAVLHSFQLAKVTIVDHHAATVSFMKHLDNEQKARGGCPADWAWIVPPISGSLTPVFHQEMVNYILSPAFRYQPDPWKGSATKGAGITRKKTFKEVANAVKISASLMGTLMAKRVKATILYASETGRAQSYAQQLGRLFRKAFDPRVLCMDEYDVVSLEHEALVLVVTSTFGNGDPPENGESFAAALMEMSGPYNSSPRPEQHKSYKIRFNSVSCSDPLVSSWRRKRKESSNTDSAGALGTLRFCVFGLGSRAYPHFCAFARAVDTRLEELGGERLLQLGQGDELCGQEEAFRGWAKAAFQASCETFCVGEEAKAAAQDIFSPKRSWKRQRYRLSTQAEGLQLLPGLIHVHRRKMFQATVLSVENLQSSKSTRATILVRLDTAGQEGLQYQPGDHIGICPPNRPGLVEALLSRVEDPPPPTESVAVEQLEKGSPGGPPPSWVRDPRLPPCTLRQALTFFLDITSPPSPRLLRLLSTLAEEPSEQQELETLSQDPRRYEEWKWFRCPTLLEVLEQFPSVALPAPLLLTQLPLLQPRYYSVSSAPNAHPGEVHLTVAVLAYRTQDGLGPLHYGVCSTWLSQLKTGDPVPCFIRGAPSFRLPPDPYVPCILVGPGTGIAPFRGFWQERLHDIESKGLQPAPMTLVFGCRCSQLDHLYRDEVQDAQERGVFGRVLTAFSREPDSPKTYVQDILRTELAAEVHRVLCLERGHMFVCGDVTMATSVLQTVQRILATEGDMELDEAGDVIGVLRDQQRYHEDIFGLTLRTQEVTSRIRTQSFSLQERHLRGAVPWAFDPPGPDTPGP

[2] = system: mutant eNOS peptide, amino acids 1174-1194 with S1179 changed to an alanine
eNOS S1179A (bovine) = target: T2, eNOS S1179A (bovine) (UniProt P29473)
T2 sequence: T1 sequence with S1178A

[3] = system: T3, wild-type eNOS peptide, amino acids 1174-1194
T3 sequence: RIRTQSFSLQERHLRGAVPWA

Substance	in vitro kinase reaction, incorporation of 32P into the substrate (histone 2B)	in vitro kinase reaction, incorporation of 32P into the substrate [1]	further results
HA-tagged kinase inactive Akt (K179M)	the inactive Akt did not significantly increase histone or eNOS phosphorylation	the inactive Akt did not significantly increase histone or eNOS phosphorylation	–
HA-tagged wild-type Akt (protein kinase B)	69.3±2.9 ... pmol of ATP/nmol substrate	115.4±3.8 pmol of ATP/nmol substrate	–
constitutively active form of Akt (myr-Akt)	–	–	basal production of NO from adenovirus infected BLMVEC [1]: myr-Akt stimulates the basal production of NO from BLMVEC
recombinant Akt purified from baculovirus infected SF9 cells	–	–	in vitro kinase reaction, phosphate incorporated into the peptide (Cerenkov counting) [2]: the alanine mutant peptide which incorporated 0.22±0.02 nmol phosphate/mg; in vitro kinase reaction with recombinant Akt, incorporation of 32P into eNOS (eNOS S1179A (bovine)): mutation of S1179 to A markedly reduces Akt-dependent phosphorylation of eNOS compared to the wild-type protein; in vitro kinase reaction, phosphate incorporated into the peptide (Cerenkov counting) [3]: wild-type peptide incorporated 24.6±3.7 nmol phosphate/mg
